Substitutions are numbered along the chain they refer to.
T1: HCV Core1-169 (hepatitis C virus (HCV-1), UniProt P26664 1-169)
T1 sequence: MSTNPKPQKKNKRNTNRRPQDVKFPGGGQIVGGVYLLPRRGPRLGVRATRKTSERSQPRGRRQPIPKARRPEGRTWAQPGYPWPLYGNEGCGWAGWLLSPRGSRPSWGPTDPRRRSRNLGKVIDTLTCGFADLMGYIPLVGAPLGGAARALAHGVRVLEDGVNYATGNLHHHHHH

B1: HCV 208B-793 (antibody, V domains shown)
VH: EVKLVESGGGLVQPGGSLKLSCAASGFTFSSYAMSWVRQTPERRLEWVTYISNGGGSTYYSDTVKGRFTFSRDNAKNTLYLQMSSLKSEDTAMYYCARHGLGRTGFASWGQGTLVTVSA
VL: DIVMTQSHKFMSTSVGDRVSITCKASQDVGTAVAWYQQKPGQSPKLLIYWASTRHTGVPDRFTGSGSGTDFTLTISNVQSEDLADYFCQQYSNYLTFGAGTKLEVKR
B2: HCV 208B-517 (antibody, V domains shown)
VH: QVQLKQSGPGLVQPSQSLSITCTVSGFSLITHGVHWVRQSPGKGLEWLGVIWSGGSTDYNAAFISRLSISKDTSKSQVFLKMSSLQADDTAIYYCARNGGATAFDYWGQGTTLTVSS
VL: DIVMTQSPATLSVTPGDRVSLSCRASQSISDYLHWYQQKSHESPRLLIKYASQSISGIPSRFRGSGSGSHFTLSINSVEPEDVGVYYCQNGHSFPWTFGGGTKLEIKR
B3: HCV 208B-822 (antibody, V domains shown)
VH: QVQLKQSGPGLVQPSQSLSITCTVSGFSLITYGVHWVRQSPGKGLEWLGVIWGGGSTGYNAAFVSRLNITKDNSKSQVFFKMNSLQPDDTAIYYCARNGGATVFDYWGQGTTLTVSS
VL: B2 VL with S28T, R63S
B4: HCV 208B-911 (antibody, V domains shown)
VH: QVHLQQPGAELVRPGVSVKLSCKASGYTFTTYSINWMKQRPGQGLEWIGNIYPSTSHTNYNQKFRDKATMTVDKSSSTAYMQLSSPTSEDSAVYYCTINAYSMDYWGQGTSVTVSS
VL: QIVLTQSPEIMSASPGEKVTITCSASSSVSFMYWFQQKPGTSPKLWIYITSNLASGVPTRFSGSGSGTSYSLTISRMEAEDAATYYCQQRSSFPYTFGGGTKLEMKR
B5: HCV 208B-515 (antibody, V domains shown)
VH: QVQLQQPGAELVKPGASLKLSCRASGYTFTSYWIHWVKQRPGQGLEWIGEIDPSDSYTNYNQKFKGKATLTVDKSSRAAYMQLSSLTSEDSAVYYCARHYYGVFDSWGQGTKLTVSS
VL: QIVFTQYPAIMSASLGERVTMTCTASSSVTSSYLHWFQQKPGSSPKLWIYSTSNPGSGVPARFSGRGSGTSYSLSISSMEAEDAATYYCLQFHRSPWTFGGGTKLEIRR
B6: HCV 208A-134 (antibody, V domains shown)
VH: QGQMQQSGAELAKPGASVKLSCKTSGFTFSSSYISWLKQKPGQSLEWIAWIYAGTGNTNYNQKFTDKAQLTVDTSSSTAYMQLSSLTTEDSAIYYCAISGTGFTYWGQGTLVTVSA
VL: EVLMTQSPLSLPVSLGDQASISCRSSQSLEHTNGNTYLEWFLQRPGQPPKLLIYKVSSRFSGVPDRFSGSGSGTDFTLKISRVEAEDLGVYYCFQGSHVPFTFGSGTKLAIKR
B7: HCV 208A-1064 (antibody, V domains shown)
VH: EVQLQQSGPELVKPGASVKISCKTSGYTFTEYAMHWMKQSHGKSLEWIGGINPTNGDTIYNQKFKDKAKLTVDRSSSTAYMELRSLTSDDSALFYCARRELDYFASWGQGTTLTVSS
VL: DIVLTQSPASLIVSLGQTATISCRASQSVSTSRFSYLHWIQQKPGQPPKLLIKYASNLESGVPVRFSGSGSGTDFTLNIHPVEEEDTATYFCQHSWEFPFTFGSGTKLKIKR
B8: HCV 208A-920 (antibody, V domains shown)
VH: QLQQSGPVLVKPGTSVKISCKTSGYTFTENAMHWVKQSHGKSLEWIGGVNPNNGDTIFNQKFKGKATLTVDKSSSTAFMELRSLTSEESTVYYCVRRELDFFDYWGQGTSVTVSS
VL: B7 VL with I12A, T18R, F34Y, L37M, I40Y, V64A, E83A, T89A, F91Y, K109E
B9: HCV 208A-159 (antibody, V domains shown)
VH: QLQQSGPAQVKPGASVMISCKTSGYTFTENAMHWVKQSHGKSLEWIGGVNPNNGDTIFNQKFKDKAALTVDKSSSTAFMELRSLTSEESTVYYCVRRELDFFDYWGQGTSVTVSS
VL: DIVLTQSPASLAVSLGQRATISCRASQSVSTSRYSYVHWYQQKPGQPPKLLIKYAANLESGVPARFSGSGSGTDFTLNIHPVAEEDAAAYYCQHSWEFPFTFGSGTKLEIKR
B10: HCV 208A-133 (antibody, V domains shown)
VH: B9 VH with A8V, Q9L, K11G, K36E, D64G, A67T, L81F
VL: B9 VL with V37M, A56S, A87T, A89T
B11: HCV 208A-110 (antibody, V domains shown)
VH: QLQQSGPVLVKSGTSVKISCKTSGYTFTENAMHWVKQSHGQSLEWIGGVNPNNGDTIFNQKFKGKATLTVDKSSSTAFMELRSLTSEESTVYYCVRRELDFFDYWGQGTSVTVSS
VL: B9 VL with V37M, A56S, A87T
B12: HCV 208B-251 (antibody, V domains shown)
VH: B9 VH with A8V, Q9L, M17K, F58Y, D64G, A67T, T90P, Y93F
VL: B9 VL with Q17K, R18K, V37M, Q46H, A56S, A87T
B13: HCV 208A-293 (antibody, V domains shown)
VH: B7 VH with T24A, Y27F, T58A, A105P
VL: B7 VL with T18R, L37V, T76I, K109E
B14: HCV 208A-334 (antibody, V domains shown)
VH: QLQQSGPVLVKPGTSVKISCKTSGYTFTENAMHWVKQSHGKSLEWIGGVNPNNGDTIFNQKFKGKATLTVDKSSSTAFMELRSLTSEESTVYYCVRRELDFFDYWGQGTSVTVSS
VL: B9 VL with V37M, A56S, A87T, E97G
B15: HCV 208B-1094 (antibody, V domains shown)
VH: B7 VH with K63R
VL: B7 VL with V29L, L37V
B16: HCV 208B-556 (antibody, V domains shown)
VH: B9 VH with A8V, Q9L, D64G, A67T, L81F
VL: B9 VL with V37M, A56S, A87T, A89T
B17: HCV 208A-741 (antibody, V domains shown)
VH: B9 VH with A8V, Q9L, D64G, A67T
VL: B9 VL with A19T, R24G, Y34F, V37M, A56S, A87T
B18: HCV 208A-207 (antibody, V domains shown)
VH: QGQLQQPGAEFVKPGASLKLSCRASGYTFTSYWIHWVKQRPGQGLEWIGEIDPSDSYINQNQKFRGKATLTVDKSSSTAYMELSGLTSEDSAVYYCARHYYGVLDSWGQGTTLTVSS
VL: DIVLTQSPATLSVTPGDRVSLSCRASQRIYNYLHWYQQKSHESPRLLTKYASQSISGIPSRFSGSGSGTDFILTINSVETEDFGMYFCQQSNSWPLTFGAGTKLELRR
B19: HCV 208B-826 (antibody, V domains shown)
VH: DVQLVESGGGLVQAGGSRKLSCAASGFPFSSFGMHWVRQAPEKGLEWVASISSRTSKIYYADNLKGRFTISRDNPKNTLFLQMTSLGSEDTAMYYCVRSVFGNSYWFFDVWGAGTTVTVSS
VL: B18 VL

How the values were obtained:
HCV Core1-169 [1] = target: T1, HCV Core1-169; test: SPR sandwich, capture mAb C11-14
HCV Core1-169 [2] = target: T1, HCV Core1-169; test: SPR sandwich, capture mAb C11-7
HCV Core1-169 [3] = target: T1, HCV Core1-169; test: SPR sandwich, capture mAb C11-9
HCV Core1-169 [4] = target: T1, HCV Core1-169; test: SPR sandwich, capture mAb C11-3
[5] = target: T2, HCV Core 134-171-TT Peptide (hepatitis C virus (HCV-1 numbering) …); test: SPR, captured mAb, peptide analyte
T2 construct: also called ALRZ-9 peptide

Binder | expected percent binding (HCV Core1-169 [1]) [%] | expected percent binding (HCV Core1-169 [2]) [%] | expected percent binding (HCV Core1-169 [3]) [%] | expected percent binding (HCV Core1-169 [4]) [%] | Kd [5] [nM] | koff [5] [s⁻¹] | kon [5] [M⁻¹ s⁻¹]
B1 | ≤ 1 | ≤ 1 | ≤ 1 | ≤ 1 |  |  | 
B2 | ≤ 1 | ≤ 1 | ≤ 1 | ≤ 1 |  |  | 
B3 | ≤ 1 | ≤ 1 | ≤ 1 | ≤ 1 |  |  | 
B4 | ≤ 1 | ≤ 1 | ≤ 1 | ≤ 1 |  |  | 
B5 | ≤ 1 | ≤ 1 | ≤ 1 | ≤ 1 |  |  | 
B6 | ≤ 1 | ≤ 1 | ≤ 1 | ≤ 1 | 2.1 | 3.8e-05 | 18000
B7 | 16.3 | 19.6 | 10.5 | 16.3 | 0.21 | 0.00034 | 1.6e+06
B8 | 19.1 | 22.9 | 13.2 | 19.3 | 0.39 | 0.00056 | 1.5e+06
B9 | 5.5 | 7 | 3.3 | 4.6 | 0.45 | 0.00065 | 1.4e+06
B10 | 9.3 | 13.9 | 5.8 | 9.8 | 0.41 | 0.0005 | 1.2e+06
B11 | 14.8 | 21.1 | 9.4 | 15.7 | 0.33 | 0.00055 | 1.7e+06
B12 | 18.2 | 20.1 | 12.3 | 16.6 | 0.58 | 0.00065 | 1.1e+06
B13 | 16.4 | 20.9 | 11 | 17.9 | 0.11 | 0.00023 | 2.1e+06
B14 | 15.9 | 20.6 | 10.3 | 17.2 | 0.34 | 0.00057 | 1.7e+06
B15 | 27.8 | 28.4 | 19.8 | 24.4 | 0.16 | 0.00025 | 1.5e+06
B16 | 12.7 | 15.3 | 8.3 | 11.5 | 0.4 | 0.0006 | 1.5e+06
B17 | 21.2 | 22.7 | 14.2 | 19.4 | 0.41 | 0.00069 | 1.7e+06
B18 | ≤ 1 | ≤ 1 | ≤ 1 | ≤ 1 | < 0.032 | < 1e-05 | 310000
B19 | ≤ 1 | ≤ 1 | ≤ 1 | ≤ 1 |  |  | 

— patent publication US20170052184A1 (published 2017)
